Reference: patent US20200101171A1

Target: IGF-1 receptor (UniProt P08069)
Experiment: SPA competition by the method of Experimental Example 1; text: relative to human native IGF-1; curve did not reach saturation at the highest concentration

UniProt P08069, sequence (P08069 31-1367 limits assumed): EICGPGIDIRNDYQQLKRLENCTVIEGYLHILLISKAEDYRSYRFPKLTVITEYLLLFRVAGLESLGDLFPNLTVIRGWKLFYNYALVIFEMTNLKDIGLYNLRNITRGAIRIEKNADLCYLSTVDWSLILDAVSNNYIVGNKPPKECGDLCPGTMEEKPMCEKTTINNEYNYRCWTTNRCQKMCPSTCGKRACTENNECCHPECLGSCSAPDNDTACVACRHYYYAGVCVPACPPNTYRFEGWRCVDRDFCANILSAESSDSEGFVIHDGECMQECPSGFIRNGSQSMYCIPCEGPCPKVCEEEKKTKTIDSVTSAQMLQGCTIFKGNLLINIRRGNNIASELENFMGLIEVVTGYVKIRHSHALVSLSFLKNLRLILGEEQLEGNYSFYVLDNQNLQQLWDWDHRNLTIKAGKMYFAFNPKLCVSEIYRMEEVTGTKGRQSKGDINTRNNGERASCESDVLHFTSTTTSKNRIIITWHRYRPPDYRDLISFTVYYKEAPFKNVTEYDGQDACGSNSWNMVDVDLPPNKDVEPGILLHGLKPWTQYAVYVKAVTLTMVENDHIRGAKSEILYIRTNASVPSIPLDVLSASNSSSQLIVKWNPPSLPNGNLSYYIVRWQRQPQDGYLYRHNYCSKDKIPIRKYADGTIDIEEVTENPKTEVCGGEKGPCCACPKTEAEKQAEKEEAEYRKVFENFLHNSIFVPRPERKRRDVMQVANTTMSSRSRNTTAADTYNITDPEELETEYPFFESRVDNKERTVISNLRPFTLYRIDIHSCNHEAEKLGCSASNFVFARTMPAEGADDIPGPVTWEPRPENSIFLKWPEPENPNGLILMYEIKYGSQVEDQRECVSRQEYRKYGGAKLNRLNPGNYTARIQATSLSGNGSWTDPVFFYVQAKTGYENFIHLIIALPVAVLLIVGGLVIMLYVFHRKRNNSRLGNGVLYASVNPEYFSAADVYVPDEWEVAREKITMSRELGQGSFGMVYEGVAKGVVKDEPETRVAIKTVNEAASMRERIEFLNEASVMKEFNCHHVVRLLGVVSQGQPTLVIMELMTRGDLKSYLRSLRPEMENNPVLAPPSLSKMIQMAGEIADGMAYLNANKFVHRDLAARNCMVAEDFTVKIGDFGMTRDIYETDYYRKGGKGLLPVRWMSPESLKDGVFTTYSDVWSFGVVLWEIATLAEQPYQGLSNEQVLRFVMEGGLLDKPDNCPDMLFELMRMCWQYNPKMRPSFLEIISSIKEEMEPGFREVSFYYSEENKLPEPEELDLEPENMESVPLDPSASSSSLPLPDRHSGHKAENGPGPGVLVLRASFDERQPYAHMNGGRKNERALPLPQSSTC
native insulin-3.4K PEG-immunoglobulin Fc conjugate, sequence (chain): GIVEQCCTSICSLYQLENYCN
native insulin-3.4K PEG-immunoglobulin Fc conjugate, sequence (chain): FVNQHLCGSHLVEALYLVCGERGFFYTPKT

Receptor binding affinity (%, SPA method), IGF-1R: < 1%
Substance: native insulin-3.4K PEG-immunoglobulin Fc conjugate
